According to patent US20190330347A1 (published 2019):

Biological target: biotin-labeled PD-1 antigen (UniProt Q15116 25-167, biotin-labeled (site not stated))
Assay: BLI (Fortebio)

Chain of biotin-labeled PD-1 antigen (Q15116 25-167): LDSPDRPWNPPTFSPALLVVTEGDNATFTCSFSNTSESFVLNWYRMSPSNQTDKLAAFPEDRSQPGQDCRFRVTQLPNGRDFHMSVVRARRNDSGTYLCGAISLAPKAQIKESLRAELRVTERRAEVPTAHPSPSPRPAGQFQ

Kd: 0.103 nM
B1: humanized H8L2 antibody (IgG-like antibody H8L2 against PD-1) (antibody)
heavy: EVQLVQSGGGLVQPGGSLKLSCAASGFTFSSYGMSWVRQAPGKGLDWVATISGGGRDTYYPDSVKGRFTISRDNSKNNLYLQMNSLRAEDTALYYCARQKGEAWFAYWGQGTLVTVSSASTKGPSVFPLAPCSRSTSESTAALGCLVKDYFPEPVTVSWNSGALTSGVHTFPAVLQSSGLYSLSSVVTVPSSSLGTKTYTCNVDHKPSNTKVDKRVESKYGPPCPPCPAPEFLGGPSVFLFPPKPKDTLMITRTPEVTCVVVDVSQEDPEVQFNWYVDGVEVHNAKTKPREEQFNSTYRVVSVLTPLHQDWLNGKEYKCKVSNKGLPSSIEKTISKAKGQPREPQVYTLPPSQEEMTKNQVSLTCLVKGFYPSDIAVEWESNGQPENNYKTTPPVLDSDGSFFLYSRLTVDKSRWQEGNVFSCSVMHEALHAHYTQKSLSLSLGK
light: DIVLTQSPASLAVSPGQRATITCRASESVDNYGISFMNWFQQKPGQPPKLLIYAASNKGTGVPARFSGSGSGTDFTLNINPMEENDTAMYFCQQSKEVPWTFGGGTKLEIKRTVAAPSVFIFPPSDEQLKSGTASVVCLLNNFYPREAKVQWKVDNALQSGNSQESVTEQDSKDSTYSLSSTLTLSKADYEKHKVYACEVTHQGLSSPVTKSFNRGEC
